Measurements from the supplement of paper PMC10567573.

B1: FEM1B (parent)
chain: TLAALLLNRSESDIRYLLGYVSQQ

Variants of: B1
Test: protein stability index of a GFP-peptide fusion (GPS, HEK-293T) (PSI 1-6); higher = more stable
Settings: c terminus: a fixed tail appended
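Further: lentivirally expressed fusions sorted by FACS into six bins by GFP to DsRed ratio, PSI derived from sequencing read proportions per bin multiplied by bin number.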

Protein stability index, by site and new letter:
S12: Y 2.93, Q 2.69, E 3.18, G 3.69, P 3.27, W 3.62, V 1.73, F 2.89, R 2.36, M 2.33, K 3.14, I 3.15, N 2.79, D 2.71, T 2.18
E11: D 2.49, C 3.04, N 3.2, W 2.68, Y 3.35, I 4.17, T 2.44, R 3.13, G 3.03, F 3.19, P 2.08, L 3.34, Q 1.99, M 3.08, V 2.96
L5: G 1.12, M 3.24, F 5.25, Y 3.74, S 2.6, R 3.37, W 2.25, E 2.14, D 2.45, A 2.03, C 2.4, K 1.44, Q 3.07
S10: G 1.53, E 3.2, A 3.37, N 2.29, I 3.57, Y 2.41, C 2.4, K 2.28, W 3.07, M 1.87, L 3.05, H 4.65, Q 4.48, F 3.1, V 1.87, P 3.81
L2: T 1.77, W 2.87, C 3.06, Q 2.44, P 1.93, A 1.7, V 2.68, M 2.24, S 1.57, Y 2.2, R 1.84, F 2.56, G 2.11, H 1.43, E 2.01, D 2.1, K 1.64, N 1.89
L6: M 2.56, G 1.97, S 1.82, I 2.88, A 2.12, V 2.22, D 2.5, E 1.7, R 1.76, C 1.21, F 2.65, Q 1.38, T 1.76, K 2.37, N 1.8
Q24: Y 2.22, F 2.26, T 3.19, I 3.41, A 2.5, N 2.6, V 1.75, K 4.32, S 2.18, C 3.34, D 2, M 1.61, E 2.39, P 2.31
D13: S 2.62, N 2.77, C 3.94, A 2.76, V 3.19, Y 3.38, F 1.76, T 2.88, L 3.62, H 3.21, M 3.99, W 4.04, R 2.72, K 2.79, E 3.26, Q 2.04, P 2.13
S22: K 2.77, D 2.48, P 2.53, N 1.56, Q 3.56, W 3.27, Y 2.7, A 3.04, V 2.25, G 2.98, H 2.55, I 2.42, C 2.87, R 2.37
Y16: E 2.06, R 2.06, P 2.95, W 4.55, V 2.24, D 2.38, N 2.17, S 1.81, F 3.75, I 1.57, T 3.16, H 1.88
G19: M 2.35, T 2.4, I 3.01, E 2.37, H 2.78, L 2.87, P 2.76, R 3.51, A 2.38, C 3.34, S 2.71, V 3.02, D 2.62, Q 2.11, F 3.44
R9: Q 1.96, K 1.96, N 2.57, W 2.79, E 1.98, I 3.29, V 2.67, G 3.4, P 1.92, F 2.9, T 2.94
I14: G 3.06, L 2.7, H 3.1, R 3, V 2.9, N 1.74, D 1.53, A 2.58, C 2.37, Y 3.54, M 3.25, P 1.79, W 1.77, T 2.56, Q 2.35, S 3
A3: E 2.92, F 3.58, T 2.18, W 2.38, Q 2.31, C 2.17, G 2.15, N 1.7, H 2.12, V 3.73, D 2, K 1.18, L 2.64, M 2.35, R 2.25
T1: A 2.5, E 2.21, M 3.36, C 3.15, P 2.1, D 1.66, Y 3.91, N 2.8, L 1.72, I 3.74, G 2.61, S 2.98
V21: P 2.42, L 3.44, Y 2.32, Q 1.53, T 1.82, S 3.12, F 2.23, N 3.55, E 2.03, I 2.41, C 3.21, D 2.86
Q23: A 2.35, M 3.68, S 2.92, N 1.93, F 2.3, Y 2.1, C 3.58, I 2.75, R 2.6, D 2.67, K 2.87, E 3.21, G 2.58, V 2.77
Y20: Q 3, F 1.29, L 2.66, C 3.38, E 4.31, I 3.01, H 2.13, D 3.08, R 3.14, M 4.22, A 2.91, K 2.46
L18: C 2.45, A 1.98, P 2.69, K 3.43, M 1.94, H 2.17, T 3.06, N 1.73, E 1.78, S 3.62, Q 3.66, V 1.67
L7: A 2.03, G 1.79, D 1.97, F 2.56, C 2.03, E 1.42, R 1.78, H 1.7, Q 1.79, P 1.3, S 1.31, N 1.95, Y 1.28, W 2.28
A4: F 3.05, Y 3.38, T 2.35, P 2.09, N 2.53, Q 2.05, S 3.29, W 2.28, M 1.5, D 2.37, G 1.68, R 3.48, K 2.59, H 2.97
L17: M 3.53, H 1.26, W 2.67, G 2.01, D 1.65, K 1.1, T 2.9, S 1.92, P 1.51, Q 3.77, R 2.04, C 3.59
R15: F 3.37, H 2.4, S 3.23, M 3.35, A 2.31, L 3.36, I 2.81, Q 1.61, K 2.3, V 1.75, D 2.12, E 2.72, N 2.55, T 3.37
N8: R 3, F 2.45, Q 3.3, I 1.53, M 4.03, K 4.32, C 4.47, H 2.92, S 2.67, A 2.48, W 4.75, T 2.38
